# Test results as given in patent US6703362 (CYTOGEN, dated 2004).
# T1: hPEPT1 receptor domain (human PEPT1, amino acid residues 391-571), His-tag fusion protein (human, UniProt P46059 391-571)
# T1 construct: purified under denaturing conditions; also called recombinant hPEPT1; not shown: poly-histidine tag (pET vector) at the NH2-terminal end
# T1 sequence: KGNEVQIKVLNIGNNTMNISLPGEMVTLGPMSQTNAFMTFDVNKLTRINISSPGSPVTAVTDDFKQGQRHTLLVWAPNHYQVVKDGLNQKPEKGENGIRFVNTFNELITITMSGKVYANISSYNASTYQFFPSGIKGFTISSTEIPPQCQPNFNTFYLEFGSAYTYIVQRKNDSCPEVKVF
# T2: D2H receptor domain (human D2H transporter, amino acid residues 387-685), His-tag fusion protein (human, UniProt Q07837 387-685)
# T2 construct: purified under denaturing conditions; also called recombinant D2H; not shown: poly-histidine tag (pET vector) at the NH2-terminal end
# T2 sequence: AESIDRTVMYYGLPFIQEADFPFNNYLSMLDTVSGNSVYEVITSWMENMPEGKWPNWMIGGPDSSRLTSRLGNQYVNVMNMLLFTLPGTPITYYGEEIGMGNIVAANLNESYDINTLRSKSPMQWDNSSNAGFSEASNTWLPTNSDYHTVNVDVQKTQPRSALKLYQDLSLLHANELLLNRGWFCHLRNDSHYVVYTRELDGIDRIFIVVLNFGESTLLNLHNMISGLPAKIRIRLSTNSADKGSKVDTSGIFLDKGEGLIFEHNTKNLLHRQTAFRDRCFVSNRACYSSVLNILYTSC
# T3: HPT1 receptor domain (human intestinal peptide-associated transporter HPT1, amino acid residues 29-273), … (human, UniProt Q12864 29-273)
# T3 construct: purified under denaturing conditions; also called recombinant HPT1; not shown: poly-histidine tag (pET vector) at the NH2-terminal end
# T3 sequence: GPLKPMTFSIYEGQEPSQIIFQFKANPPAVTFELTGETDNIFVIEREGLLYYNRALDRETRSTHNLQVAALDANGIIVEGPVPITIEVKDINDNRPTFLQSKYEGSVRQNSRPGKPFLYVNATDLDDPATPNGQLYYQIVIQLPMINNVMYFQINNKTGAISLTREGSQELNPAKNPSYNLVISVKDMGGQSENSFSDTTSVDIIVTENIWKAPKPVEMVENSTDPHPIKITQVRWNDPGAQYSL
# B1: SNiAX8 (peptide)
# peptide: SPKLSSVGVMTKVTELPTEGPNAISIPISATLGPRNPLRAETVESCLAKPHTENSFTNVWKDDKTLDRYANYEGCLWNATGVVVCTGDETQCYGTWVPIGLAIPENEGGGSEGGGSEGGGSEGGGTKPPEYGDTPIPGYTYINPLDGTYPPGTEQNPANPNPSLEESQPLNTFMFQNNRFRNRQGALTVYTGTVTQGTDPVKTYYQYTPVSSKAMYDAYWNGKFRDCAFHSGFNEDPFVCEYQGQSSDLPQPPVNAGGGSGGGSGGGSEGGGSEGGGSEGGGSEGGGSGGGSGSGDFDYEKMANANKGAMTENADENALQSDAKGKLDSVATDYGAAIDGFIGDVSGLANGNGATGDFAGSNSQMAQVGDGDNSPLMNNFRQYLPSLPQSVECRPFVFSAGKPYEFSIDCDKINLFRGVFAFLLYVATFMYVFSTFANILRNKES
# notes: Assayed as M13 phage clone displaying the insert
# B2: P31 (peptide)
# peptide: SARDSGPAEDGSRAVRLNGVENANTRKSSRSNPRGRRHPAETVESCLAKPHTENSFTNVWKDDKTLDRYANYEGCLWNATGVVVCTGDETQCYGTWVPIGLAIPENEGGGSEGGGSEGGGSEGGGTKPPEYGDTPIPGYTYINPLDGTYPPGTEQNPANPNPSLEESQPLNTFMFQNNRFRNRQGALTVYTGTVTQGTDPVKTYYQYTPVSSKAMYDAYWNGKFRDCAFHSGFNEDPFVCEYQGQSSDLPQPPVNAGGGSGGGSGGGSEGGGSEGGGSEGGGSEGGGSGGGSGSGDFDYEKMANANKGAMTENADENALQSDAKGKLDSVATDYGAAIDGFIGDVSGLANGNGATGDFAGSNSQMAQVGDGDNSPLMNNFRQYLPSLPQSVECRPFVFSAGKPYEFSIDCDKINLFRGVFAFLLYVATFMYVFSTFANILRNKES
# notes: as for B1
# B3: DCX36 (peptide)
# peptide: SWSSWNWSSKTTRLGDRATREGCGPSQSDGCPYNGRLTTVKPRTAETVESCLAKPHTENSFTNVWKDDKTLDRYANYEGCLWNATGVVVCTGDETQCYGTWVPIGLAIPENEGGGSEGGGSEGGGSEGGGTKPPEYGDTPIPGYTYINPLDGTYPPGTEQNPANPNPSLEESQPLNTFMFQNNRFRNRQGALTVYTGTVTQGTDPVKTYYQYTPVSSKAMYDAYWNGKFRDCAFHSGFNEDPFVCEYQGQSSDLPQPPVNAGGGSGGGSGGGSEGGGSEGGGSEGGGSEGGGSGGGSGSGDFDYEKMANANKGAMTENADENALQSDAKGKLDSVATDYGAAIDGFIGDVSGLANGNGATGDFAGSNSQMAQVGDGDNSPLMNNFRQYLPSLPQSVECRPFVFSAGKPYEFSIDCDKINLFRGVFAFLLYVATFMYVFSTFANILRNKES
# notes: as for B1
# B4: DCX45 (peptide)
# peptide: SVGNDKTSRPVSFYGRVSDLWNASLMPKRTPSSKRHDDGAETVESCLAKPHTENSFTNVWKDDKTLDRYANYEGCLWNATGVVVCTGDETQCYGTWVPIGLAIPENEGGGSEGGGSEGGGSEGGGTKPPEYGDTPIPGYTYINPLDGTYPPGTEQNPANPNPSLEESQPLNTFMFQNNRFRNRQGALTVYTGTVTQGTDPVKTYYQYTPVSSKAMYDAYWNGKFRDCAFHSGFNEDPFVCEYQGQSSDLPQPPVNAGGGSGGGSGGGSEGGGSEGGGSEGGGSEGGGSGGGSGSGDFDYEKMANANKGAMTENADENALQSDAKGKLDSVATDYGAAIDGFIGDVSGLANGNGATGDFAGSNSQMAQVGDGDNSPLMNNFRQYLPSLPQSVECRPFVFSAGKPYEFSIDCDKINLFRGVFAFLLYVATFMYVFSTFANILRNKES
# notes: as for B1
# B5: HCA3 (peptide)
# peptide: RHISEYSFANSHLMGGESKRKGCGINGSFSPTCPRSPTPAFRRTAETVESCLAKPHTENSFTNVWKDDKTLDRYANYEGCLWNATGVVVCTGDETQCYGTWVPIGLAIPENEGGGSEGGGSEGGGSEGGGTKPPEYGDTPIPGYTYINPLDGTYPPGTEQNPANPNPSLEESQPLNTFMFQNNRFRNRQGALTVYTGTVTQGTDPVKTYYQYTPVSSKAMYDAYWNGKFRDCAFHSGFNEDPFVCEYQGQSSDLPQPPVNAGGGSGGGSGGGSEGGGSEGGGSEGGGSEGGGSGGGSGSGDFDYEKMANANKGAMTENADENALQSDAKGKLDSVATDYGAAIDGFIGDVSGLANGNGATGDFAGSNSQMAQVGDGDNSPLMNNFRQYLPSLPQSVECRPFVFSAGKPYEFSIDCDKINLFRGVFAFLLYVATFMYVFSTFANILRNKES
# notes: as for B1
# B6: DCX26 (peptide)
# peptide: SGRTTSEISGLWGWGDDRSGYGWGNTLRPNYIPYRQATNRHRYTAETVESCLAKPHTENSFTNVWKDDKTLDRYANYEGCLWNATGVVVCTGDETQCYGTWVPIGLAIPENEGGGSEGGGSEGGGSEGGGTKPPEYGDTPIPGYTYINPLDGTYPPGTEQNPANPNPSLEESQPLNTFMFQNNRFRNRQGALTVYTGTVTQGTDPVKTYYQYTPVSSKAMYDAYWNGKFRDCAFHSGFNEDPFVCEYQGQSSDLPQPPVNAGGGSGGGSGGGSEGGGSEGGGSEGGGSEGGGSGGGSGSGDFDYEKMANANKGAMTENADENALQSDAKGKLDSVATDYGAAIDGFIGDVSGLANGNGATGDFAGSNSQMAQVGDGDNSPLMNNFRQYLPSLPQSVECRPFVFSAGKPYEFSIDCDKINLFRGVFAFLLYVATFMYVFSTFANILRNKES
# notes: as for B1
# B7: DCX33 (peptide)
# peptide: RWNWTVLPATGGHYWTRSTDYHAINNHRPSIPHQHPTPIAETVESCLAKPHTENSFTNVWKDDKTLDRYANYEGCLWNATGVVVCTGDETQCYGTWVPIGLAIPENEGGGSEGGGSEGGGSEGGGTKPPEYGDTPIPGYTYINPLDGTYPPGTEQNPANPNPSLEESQPLNTFMFQNNRFRNRQGALTVYTGTVTQGTDPVKTYYQYTPVSSKAMYDAYWNGKFRDCAFHSGFNEDPFVCEYQGQSSDLPQPPVNAGGGSGGGSGGGSEGGGSEGGGSEGGGSEGGGSGGGSGSGDFDYEKMANANKGAMTENADENALQSDAKGKLDSVATDYGAAIDGFIGDVSGLANGNGATGDFAGSNSQMAQVGDGDNSPLMNNFRQYLPSLPQSVECRPFVFSAGKPYEFSIDCDKINLFRGVFAFLLYVATFMYVFSTFANILRNKES
# notes: as for B1
# B8: DCX42 (peptide)
# peptide: RYSGLSPRDNGPACSQEATLEGCGAQRLMSTRRKGRNSRPGWTLAETVESCLAKPHTENSFTNVWKDDKTLDRYANYEGCLWNATGVVVCTGDETQCYGTWVPIGLAIPENEGGGSEGGGSEGGGSEGGGTKPPEYGDTPIPGYTYINPLDGTYPPGTEQNPANPNPSLEESQPLNTFMFQNNRFRNRQGALTVYTGTVTQGTDPVKTYYQYTPVSSKAMYDAYWNGKFRDCAFHSGFNEDPFVCEYQGQSSDLPQPPVNAGGGSGGGSGGGSEGGGSEGGGSEGGGSEGGGSGGGSGSGDFDYEKMANANKGAMTENADENALQSDAKGKLDSVATDYGAAIDGFIGDVSGLANGNGATGDFAGSNSQMAQVGDGDNSPLMNNFRQYLPSLPQSVECRPFVFSAGKPYEFSIDCDKINLFRGVFAFLLYVATFMYVFSTFANILRNKES
# notes: as for B1
# B9: DCX39 (peptide)
# peptide: SGSLNAWQPRSWVGGAFRSHANNNLNPKPTMVTRHPTAETVESCLAKPHTENSFTNVWKDDKTLDRYANYEGCLWNATGVVVCTGDETQCYGTWVPIGLAIPENEGGGSEGGGSEGGGSEGGGTKPPEYGDTPIPGYTYINPLDGTYPPGTEQNPANPNPSLEESQPLNTFMFQNNRFRNRQGALTVYTGTVTQGTDPVKTYYQYTPVSSKAMYDAYWNGKFRDCAFHSGFNEDPFVCEYQGQSSDLPQPPVNAGGGSGGGSGGGSEGGGSEGGGSEGGGSEGGGSGGGSGSGDFDYEKMANANKGAMTENADENALQSDAKGKLDSVATDYGAAIDGFIGDVSGLANGNGATGDFAGSNSQMAQVGDGDNSPLMNNFRQYLPSLPQSVECRPFVFSAGKPYEFSIDCDKINLFRGVFAFLLYVATFMYVFSTFANILRNKES
# notes: as for B1
# How the values were obtained:
# [1] = target: T4, hSI receptor domain (human sucrase-isomaltase complex, amino acid residues 272-667), His-tag fusion protein (human, UniProt P14410 272-667); test: phage ELISA, OD on hSI over OD on BSA
# T4 construct: also called hS1; recombinant hSI; not shown: poly-histidine tag (pET vector) at the NH2-terminal end
# T4 sequence (P14410 272-667, one chain of several): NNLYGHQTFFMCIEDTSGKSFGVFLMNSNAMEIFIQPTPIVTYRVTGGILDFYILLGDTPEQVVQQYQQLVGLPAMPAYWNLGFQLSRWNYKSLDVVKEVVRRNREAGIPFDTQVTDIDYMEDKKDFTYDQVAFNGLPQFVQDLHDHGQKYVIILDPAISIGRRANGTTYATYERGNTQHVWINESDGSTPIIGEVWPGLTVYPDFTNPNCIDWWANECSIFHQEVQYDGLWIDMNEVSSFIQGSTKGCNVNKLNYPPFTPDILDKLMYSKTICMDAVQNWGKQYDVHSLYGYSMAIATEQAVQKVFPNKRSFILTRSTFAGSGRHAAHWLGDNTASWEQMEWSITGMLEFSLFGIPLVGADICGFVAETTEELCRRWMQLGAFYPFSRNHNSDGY
# Description: (§1) 6.6. Receptor ELISA Procedure 96 well plates were coated overnight with GIT receptor, BSA and, optionally, IDE (insulin degrading enzyme, an irrelevant His-fusion protein)or hTF. The plates were blocked for one hour with 0.5% BSA-PBS. After clarification, the amplified phage were diluted 1:100 in […] plus 0.05% Tween 20 in PBS and added to the plates. Following incubation of the plates on a rotator for 1 to 2 hours, the plates were washed 5 times with 1% BSA plus 0.05% Tween 20 in PBS. […] After the plates were washed 5 times, as described above, TMB substrate was added to the wells. The plates were read at 650 nm absorbance.
# [2] = target: T4, hSI receptor domain (human …); test: phage ELISA, plate coated with hSI domain
# Description: as §1
# [3] = target: T1, hPEPT1 receptor domain (human PEPT1, …); test: phage ELISA, OD on hPEPT1 over OD on BSA
# Description: as §1
# [4] = target: T1, hPEPT1 receptor domain (human PEPT1, …); test: phage ELISA, plate coated with hPEPT1 domain
# Description: as §1
# [5] = target: T2, D2H receptor domain (human D2H …); test: phage ELISA, plate coated with D2H domain
# Description: as §1
# Binding to fixed Caco-2 cells, D2H and BSA was examined.
# [6] = target: T3, HPT1 receptor domain (human intestinal …); test: phage ELISA, OD on HPT1 over OD on BSA
# Description: as §1
Binder,OD [5] [OD],further results
B1,,hSI/BSA [1]: 5 ratio; OD [2]: 0.342 OD
B2,,PEPT1/BSA [3]: 11 ratio; OD [4]: 0.807 OD
B3,0.293,
B4,0.336,
B5,,HPT1/BSA [6]: 1 ratio
B6,0.956,
B7,0.616,
B8,0.158,
B9,0.299,
